Where a chain is given by its changes, count along the chain named.
B1: pTT5-AR8820-1.1mIgG1Fc (Fc fusion)
heavy: QVQLVESGGGVVQPGGSLRLSCAASGSSISRYAMAWYRQAPGKGRELVAVVRITGSPIYADFVGGRFTISRDNSKNTLYLQMNSLRAEDTAVYYCATGNFNTYTRRYSPSETWGKGTTVTVSSVPRDCGCKPCICTVPEVSSVFIFPPKPKDVLTITLTPKVTCVVVDISKDDPEVQFSWFVDDVEVHTAQTQPREEQFNSTFRSVSELPIMHQDWLNGKEFKCRVNSAAFPAPIEKTISKTKGRPKAPQVYTIPPPKEQMAKDKVSLTCMITDFFPEDITVEWQWNGQPAENYKNTQPIMDTDGSYFVYSKLNVQKSNWEAGNTFTCSVLHEGLHNHHTEKSLSHSPGK
notes: As m24
B2: pTT5-AR8820-3.1 mIgG1Fc (Fc fusion)
heavy: B1 heavy with Q1E, V11L, S74A, T77S, K115Q, T118L
notes: As m24
B3: pTT5-AR8820-2.3mIgG1Fc (Fc fusion)
VHH-Fc: B1 heavy with Q1E, V11L, V12I, A49S, A96N, T97R, K115Q
notes: As m24
B4: pTT5-AR8820-2.1mIgG1Fc (Fc fusion)
VHH-Fc: B1 heavy with Q1E, V11L, V12I, A49S, K115Q
notes: As m24
B5: pTT5-AR8820-1.3mIgG1Fc (Fc fusion)
heavy: B1 heavy with A96N
notes: As m24
B6: pTT5-AR8804-3.3mIgG1Fc (Fc fusion)
heavy: B1 heavy with I29V, S56I, G64K, A96N
notes: As m24
B7: pTT5-AR8820-1.2mIgG1Fc (Fc fusion)
heavy: B1 heavy with L47W
notes: As m24
B8: pTT5-AR8804-3.2 mIgG1Fc (Fc fusion)
heavy: B1 heavy with I29V, L47W, S56I, G64K
notes: As m24
B9: pTT5-AR8820-3.3 mIgG1Fc (Fc fusion)
VHH-Fc: B1 heavy with Q1E, V11L, S74A, T77S, A96N, K115Q, T118L
notes: As m24

Target: T1, cynomolgus monkey CD16a on HEK293 cells expressing cyno monkey CD16a (constructed by Genscript) (cynomolgus monkey, UniProt Q8SPW2 17-254)
T1 construct: whole, on cells; also called cynomolgus monkey CD16a protein
Test: flow cytometry on HEK293 cells expressing cyno monkey CD16a
Protocol: To determine the cross-reactions of antibody products, HEK293 cells expressing cyno monkey CD16a (constructed by Genscript) were harvested and incubated respectively with serially diluted anti-CD16a humanized sdAb-mIgG1Fcs (max. concentration: 100 nM, 3-fold dilution), followed by fluorophore (iFluor 647)-labeled goat anti mouse IgG (H+L) secondary antibodies (Jackson immuno research; catalog #: 115-605-062). The samples were then analyzed with flow cytometry. Raw data was plotted with GraphPad Prism v6.02 software with four parameters, best-fit values program to analyze the EC₅₀. The molecules of pTT5-AR8804-3.2 mIgG1Fc, pTT5-AR8804-3.3mIgG1Fc, pTT5-AR8820-1.1mIgG1Fc, pTT5-AR8820-1.2mIgG1Fc, pTT5-AR8820-1.3mIgG1Fc, pTT5-AR8820-2.1mIgG1Fc, pTT5-AR8820-2.3mIgG1Fc, pTT5-AR8820-3.1mIgG1Fc and pTT5-AR8820-3.3 mIgG1Fc manifested good cross-reaction with cynomolgus monkey CD16a protein (FIG. 13).

T1 sequence (Q8SPW2 17-254): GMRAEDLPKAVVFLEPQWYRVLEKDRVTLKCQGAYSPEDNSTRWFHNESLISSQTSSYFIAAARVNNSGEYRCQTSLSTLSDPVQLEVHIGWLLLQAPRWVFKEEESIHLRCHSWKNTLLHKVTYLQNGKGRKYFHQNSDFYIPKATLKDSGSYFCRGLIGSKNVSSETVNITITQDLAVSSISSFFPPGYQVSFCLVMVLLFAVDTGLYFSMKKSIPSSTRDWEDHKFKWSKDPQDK

Binder | binding result
B1 | binds
B2 | binds
B3 | binds
B4 | binds
B5 | binds
B6 | binds
B7 | binds
B8 | binds
B9 | binds

— patent US20240352128A1 (NANJING GENSCRIPT BIOTECH, published 2024)
